In paper PMC7367873, “Dissecting the sequence determinants for dephosphorylation by the catalytic subunits of phosphatases PP1 and PP2A” (Nature Communications, 2020):

B1: MATR3 (protein, UniProt P43243 2-847, looked up)
Matrin-3: SKSFQQSSLSRDSQGHGRDLSAAGIGLLAAATQSLSMPASLGRMNQGTARLASLMNLGMSSSLNQQGAHSALSSASTSSHNLQSIFNIGSRGPLPLSSQHRGDADQASNILASFGLSARDLDELSRYPEDKITPENLPQILLQLKRRRTEEGPTLSYGRDGRSATREPPYRVPRDDWEEKRHFRRDSFDDRGPSLNPVLDYDHGSRSQESGYYDRMDYEDDRLRDGERCRDDSFFGETSHNYHKFDSEYERMGRGPGPLQERSLFEKKRGAPPSSNIEDFHGLLPKGYPHLCSICDLPVHSNKEWSQHINGASHSRRCQLLLEIYPEWNPDNDTGHTMGDPFMLQQSTNPAPGILGPPPPSFHLGGPAVGPRGNLGAGNGNLQGPRHMQKGRVETSRVVHIMDFQRGKNLRYQLLQLVEPFGVISNHLILNKINEAFIEMATTEDAQAAVDYYTTTPALVFGKPVRVHLSQKYKRIKKPEGKPDQKFDQKQELGRVIHLSNLPHSGYSDSAVLKLAEPYGKIKNYILMRMKSQAFIEMETREDAMAMVDHCLKKALWFQGRCVKVDLSEKYKKLVLRIPNRGIDLLKKDKSRKRSYSPDGKESPSDKKSKTDGSQKTESSTEGKEQEEKSGEDGEKDTKDDQTEQEPNMLLESEDELLVDEEEAAALLESGSSVGDETDLANLGDVASDGKKEPSDKAVKKDGSASAAAKKKLKKVDKIEELDQENEAALENGIKNEENTEPGAESSENADDPNKDTSENADGQSDENKDDYTIPDEYRIGPYQPNVPVGIDYVIPKTGFYCKLCSLFYTNEEVAKNTHCSSLPHYQKLKKFLNKLAEERRQKKET
B2: MAP4 (protein, UniProt P27816 2-1152, looked up)
Microtubule-associated …: ADLSLADALTEPSPDIEGEIKRDFIATLEAEAFDDVVGETVGKTDYIPLLDVDEKTGNSESKKKPCSETSQIEDTPSSKPTLLANGGHGVEGSDTTGSPTEFLEEKMAYQEYPNSQNWPEDTNFCFQPEQVVDPIQTDPFKMYHDDDLADLVFPSSATADTSIFAGQNDPLKDSYGMSPCNTAVVPQGWSVEALNSPHSESFVSPEAVAEPPQPTAVPLELAKEIEMASEERPPAQALEIMMGLKTTDMAPSKETEMALAKDMALATKTEVALAKDMESPTKLDVTLAKDMQPSMESDMALVKDMELPTEKEVALVKDVRWPTETDVSSAKNVVLPTETEVAPAKDVTLLKETERASPIKMDLAPSKDMGPPKENKKETERASPIKMDLAPSKDMGPPKENKIVPAKDLVLLSEIEVAQANDIISSTEISSAEKVALSSETEVALARDMTLPPETNVILTKDKALPLEAEVAPVKDMAQLPETEIAPAKDVAPSTVKEVGLLKDMSPLSETEMALGKDVTPPPETEVVLIKNVCLPPEMEVALTEDQVPALKTEAPLAKDGVLTLANNVTPAKDVPPLSETEATPVPIKDMEIAQTQKGISEDSHLESLQDVGQSAAPTFMISPETVTGTGKKCSLPAEEDSVLEKLGERKPCNSQPSELSSETSGIARPEEGRPVVSGTGNDITTPPNKELPPSPEKKTKPLATTQPAKTSTSKAKTQPTSLPKQPAPTTIGGLNKKPMSLASGLVPAAPPKRPAVASARPSILPSKDVKPKPIADAKAPEKRASPSKPASAPASRSGSKSTQTVAKTTTAAAVASTGPSSRSPSTLLPKKPTAIKTEGKPAEVKKMTAKSVPADLSRPKSTSTSSMKKTTTLSGTAPAAGVVPSRVKATPMPSRPSTTPFIDKKPTSAKPSSTTPRLSRLATNTSAPDLKNVRSKVGSTENIKHQPGGGRAKVEKKTEAAATTRKPESNAVTKTAGPIASAQKQPAGKVQIVSKKVSYSHIQSKCGSKDNIKHVPGGGNVQIQNKKVDISKVSSKCGSKANIKHKPGGGDVKIESQKLNFKEKAQAKVGSLDNVGHLPAGGAVKTEGGGSEAPLCPGPPAGEEPAISEAAPEAGAPTSASGLNGHPTLSGGGDQREAQTLDSQIQETSI
B3: DCD (protein, UniProt P81605 20-110, looked up)
Dermcidin: YDPEAASAPGSGNPCHEASAAQKENAGEDPGLARQAPKPRKQRSSLLEKGLDGAKKAVGGLGKLGKDAVEDLESVGKGAVHDVKDVLDSVL
B4: BASP1 (protein, UniProt P80723 2-227, looked up)
Brain acid soluble protein 1: GGKLSKKKKGYNVNDEKAKEKDKKAEGAATEEEGTPKESEPQAAAEPAEAKEGKEKPDQDAEGKAEEKEGEKDAAAAKEEAPKAEPEKTEGAAEAKAEPPKAPEQEQAAPGPAAGGEAPKAAEAAAAPAESAAPAAGEEPSKEEGEPKKTEAPAAPAAQETKSDGAPASDSKPGSSEAAPSSKETPAATEAPSSTPKAQGPAASAEEPKPVEAPAANSDQTVTVKE
B5: SRPRB (protein, UniProt Q9Y5M8 1-271, looked up)
Signal recognition particle …: MASADSRRVADGGGAGGTFQPYLDTLRQELQQTDPTLLSVVVAVLAVLLTLVFWKLIRSRRSSQRAVLLVGLCDSGKTLLFVRLLTGLYRDTQTSITDSCAVYRVNNNRGNSLTLIDLPGHESLRLQFLERFKSSARAIVFVVDSAAFQREVKDVAEFLYQVLIDSMGLKNTPSFLIACNKQDIAMAKSAKLIQQQLEKELNTLRVTRSAAPSTLDSSSTAPAQLGKKGKEFEFSQLPLKVEFLECSAKGGRGDVGSADIQDLEKWLAKIA
B6: HNRNPC (protein, UniProt P07910 2-306, looked up)
Heterogeneous nuclear …: ASNVTNKTDPRSMNSRVFIGNLNTLVVKKSDVEAIFSKYGKIVGCSVHKGFAFVQYVNERNARAAVAGEDGRMIAGQVLDINLAAEPKVNRGKAGVKRSAAEMYGSVTEHPSPSPLLSSSFDLDYDFQRDYYDRMYSYPARVPPPPPIARAVVPSKRQRVSGNTSRRGKSGFNSKSGQRGSSKSGKLKGDDLQAIKKELTQIKQKVDSLLENLEKIEKEQSKQAVEMKNDKSEEEQSSSSVKKDETNVKMESEGGADDSAEEGDLLDDDDNEDRGDDQLELIKDDEKEAEEGEDDRDSANGEDDS
B7: BRIX1 (protein, UniProt Q8TDN6 1-353, looked up)
Ribosome biogenesis protein …: MAATKRKRRGGFAVQAKKPKRNEIDAEPPAKRHATAEEVEEEERDRIPGPVCKGKWKNKERILIFSSRGINFRTRHLMQDLRMLMPHSKADTKMDRKDKLFVINEVCEMKNCNKCIYFEAKKKQDLYMWLSNSPHGPSAKFLVQNIHTLAELKMTGNCLKGSRPLLSFDPAFDELPHYALLKELLIQIFSTPRYHPKSQPFVDHVFTFTILDNRIWFRNFQIIEEDAALVEIGPRFVLNLIKIFQGSFGGPTLYENPHYQSPNMHRRVIRSITAAKYREKQQVKDVQKLRKKEPKTLLPHDPTADVFVTPAEEKPIEIQWVKPEPKVDLKARKKRIYKRQRKMKQRMDSGKTK
B8: GNAS (protein, UniProt P63092 2-394, looked up)
Guanine nucleotide-binding …: GCLGNSKTEDQRNEEKAQREANKKIEKQLQKDKQVYRATHRLLLLGAGESGKSTIVKQMRILHVNGFNGEGGEEDPQAARSNSDGEKATKVQDIKNNLKEAIETIVAAMSNLVPPVELANPENQFRVDYILSVMNVPDFDFPPEFYEHAKALWEDEGVRACYERSNEYQLIDCAQYFLDKIDVIKQADYVPSDQDLLRCRVLTSGIFETKFQVDKVNFHMFDVGGQRDERRKWIQCFNDVTAIIFVVASSSYNMVIREDNQTNRLQEALNLFKSIWNNRWLRTISVILFLNKQDLLAEKVLAGKSKIEDYFPEFARYTTPEDATPEPGEDPRVTRAKYFIRDEFLRISTASGDGRHYCYPHFTCAVDTENIRRVFNDCRDIIQRMHLRQYELL
B9: SPATS2 (protein, UniProt Q86XZ4 1-545, looked up)
Spermatogenesis-associated …: MSRKQNQKDSSGFIFDLQSNTVLAQGGAFENMKEKINAVRAIVPNKSNNEIILVLQHFDNCVDKTVQAFMEGSASEVLKEWTVTGKKKNKKKKNKPKPAAEPSNGIPDSSKSVSIQEEQSAPSSEKGGMNGYHVNGAINDTESVDSLSEGLETLSIDARELEDPESAMLDTLDRTGSMLQNGVSDFETKSLTMHSIHNSQQPRNAAKSLSRPTTETQFSNMGMEDVPLATSKKLSSNIEKSVKDLQRCTVSLARYRVVVKEEMDASIKKMKQAFAELESCLMDREVALLAEMDKVKAEAMEILLSRQKKAELLKKMTHVAVQMSEQQLVELRADIKHFVSERKYDEDLGRVARFTCDVETLKKSIDSFGQVSHPKNSYSTRSRCSSVTSVSLSSPSDASAASSSTCASPPSLTSANKKNFAPGETPAAIANSSGQPYQPLREVLPGNRRGGQGYRPQGQKSNDPMNQGRHDSMGRYRNSSWYSSGSRYQSAPSQAPGNTIERGQTHSAGTNGTGVSMEPSPPTPSFKKGLPQRKPRTSQTEAVNS
B10: SLC16A3 (protein, UniProt O15427 2-465, looked up)
Monocarboxylate transporter 4: GGAVVDEGPTGVKAPDGGWGWAVLFGCFVITGFSYAFPKAVSVFFKELIQEFGIGYSDTAWISSILLAMLYGTGPLCSVCVNRFGCRPVMLVGGLFASLGMVAASFCRSIIQVYLTTGVITGLGLALNFQPSLIMLNRYFSKRRPMANGLAAAGSPVFLCALSPLGQLLQDRYGWRGGFLILGGLLLNCCVCAALMRPLVVTAQPGSGPPRPSRRLLDLSVFRDRGFVLYAVAASVMVLGLFVPPVFVVSYAKDLGVPDTKAAFLLTILGFIDIFARPAAGFVAGLGKVRPYSVYLFSFSMFFNGLADLAGSTAGDYGGLVVFCIFFGISYGMVGALQFEVLMAIVGTHKFSSAIGLVLLMEAVAVLVGPPSGGKLLDATHVYMYVFILAGAEVLTSSLILLLGNFFCIRKKPKEPQPEVAAAEEEKLHKPPADSGVDLREVEHFLKAEPEKNGEVVHTPETSV
B11: VAPA (protein, UniProt Q9P0L0 2-249, looked up)
Vesicle-associated membrane …: ASASGAMAKHEQILVLDPPTDLKFKGPFTDVVTTNLKLRNPSDRKVCFKVKTTAPRRYCVRPNSGIIDPGSTVTVSVMLQPFDYDPNEKSKHKFMVQTIFAPPNTSDMEAVWKEAKPDELMDSKLRCVFEMPNENDKLNDMEPSKAVPLNASKQDGPMPKPHSVSLNDTETRKLMEECKRLQGEMMKLSEENRHLRDEGLRLRKVAHSDKPGSTSTASFRDNVTSPLPSLLVVIAAIFIGFFLGKFIL

The molecules below were run on GFP-14-3-3β and its binding proteins (assay: GFP-14-3-3β co-IP with LC-MS/MS label-free quantification, untreated versus PP1c-treated). Details: GFP-14-3-3β co-IP LC-MS/MS; PP1 vs untreated; student's t-test; label-free quantification, 3 replicates each.
Parameters: species or system human
In the case of B1, the “Difference (log2), PP1 vs untreated” value is reported as -0.7331 log2. With B2 the “Difference (log2), PP1 vs untreated” value was -0.5793 log2. With B3 the “Difference (log2), PP1 vs untreated” value was -0.6713 log2. In the case of B4, the “Difference (log2), PP1 vs untreated” value is reported as -0.7159 log2. With B5 the “Difference (log2), PP1 vs untreated” value was -0.6831 log2. For B6, the “Difference (log2), PP1 vs untreated” value was -0.69 log2. In the case of B7, the “Difference (log2), PP1 vs untreated” value is reported as -0.6423 log2. For B8, the “Difference (log2), PP1 vs untreated” value was -0.7154 log2. For B9, the “Difference (log2), PP1 vs untreated” value was -0.5886 log2.

Same assay, conditions: log2 difference; pairwise comparison PP1 vs untreated, label-free quantification, 3 replicates each
In the case of B10, the “Difference (log2), PP1 vs untreated” value is reported as 1.651. In the case of B11, the “Difference (log2), PP1 vs untreated” value is reported as 1.6514.

The molecules below were run on GFP-14-3-3β (assay: GFP-14-3-3β co-IP with LC-MS/MS, untreated GFP-14-3-3β versus GFP control (14-3-3 interactome)). Details: GFP-14-3-3β co-IP LC-MS/MS; untreated vs GFP; student's t-test; label-free quantification, 3 replicates each.
Assay type: binding, human
For B1, the “Difference (log2), untreated vs GFP” value was 1.234 log2. B2 was tested, and the “Difference (log2), untreated vs GFP” value was 0.9373 log2. In the case of B3, the “Difference (log2), untreated vs GFP” value is reported as -1.7359 log2. In the case of B4, the “Difference (log2), untreated vs GFP” value is reported as -1.2737 log2. B5 was tested, and the “Difference (log2), untreated vs GFP” value was 1.397 log2. With B6 the “Difference (log2), untreated vs GFP” value was 1.297 log2. In the case of B7, the “Difference (log2), untreated vs GFP” value is reported as 1.65 log2. For B8, the “Difference (log2), untreated vs GFP” value was 0.1054 log2. B9 was tested, and the “Difference (log2), untreated vs GFP” value was 1.275 log2.

Same assay, conditions: log2 difference; pairwise comparison untreated vs GFP, label-free quantification, 3 replicates each
In the case of B10, the “Difference (log2), untreated vs GFP” value is reported as 0.1883. In the case of B11, the “Difference (log2), untreated vs GFP” value is reported as -1.034.
